The subject of the data set is MS2 coat protein. Put plainly: apparent KD of MS2 coat protein; designed switch direction (-1 OFF switch, 1 ON switch): -1; higher = weaker reporter binding. The procedure, abridged:
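Designed RNA switches sharing common flanks were transcribed on Illumina chips by stalled E. coli RNA polymerase. They were titrated with SNAP-549-labelled MS2 coat protein, from 0.7 or 1.5 nM doubling to 3 µM, in Tris-HCl pH 7.5 buffer with KCl, MgCl2, BSA, DTT, tRNA and Tween-20. Titrations ran without input, with 200 uM small-molecule ligand, or with an oligonucleotide input. The apparent KD of each design is the median over its clusters, after curve-fitting of normalised cluster fluorescence.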

The mark [1] stands for this setting: input ligand: microRNA oligo, concentration not stated.
The mark [2] stands for this setting: Eterna round: R95, input ligand: microRNA oligo, concentration not stated.

As for “UGUUGUCGCGCAGGAUAUGUAUGAGGAUCACCCAUUAAUAAAUUUUAACCACGAGGAUCACCCGUGUAGAAGGGCGGGACAACA [pwkr exNG2 2xF5 1xFMN.15] (Eterna round: R96, puzzle: Exclusion NG 2)”, the “apparent KD of MS2 coat protein” value reads like this: (input ligand: FMN 200 uM) 30.8 nM; under setting [1], 18.3 nM; (input ligand: none) 29.5 nM.

As for “UGUUGUUACGCAGGAUAUGAGGAUCACCCAUAUUAGGAUAUCGAAAGAGAAUUUCUGAGGAUCACCCAGAAGGGCGGGUUAACA [pwkr exNG2 2xF5 2xFMN.36] (Eterna round: R96, puzzle: Exclusion NG 2)”, the “apparent KD of MS2 coat protein” value turned out to be 118 nM (input ligand: FMN 200 uM), 38.5 nM under setting [1] and 47.3 nM (input ligand: none).

As to “UGUUGUUACGCAGGAUAUGUAUGAGGAUCACCCAUUAAUAAAUUUUAACCACGAGGAUCACCCGUGUAGAAGGGCGGGUUAACA [pwkr exNG2 2xF5 1xFMN.13] (Eterna round: R96, puzzle: Exclusion NG 2)”, the “apparent KD of MS2 coat protein” value was determined as 96.3 nM (input ligand: FMN 200 uM), 65 nM under setting [1] and 105 nM (input ligand: none).

On to “UGUUGUUACGCAGGAUAUUGCCAACAGGCAGUAGGAUAUCCGAAAGGAGAAGGACCGCCAACAGGCGAGAAGGGCGGGUUAACA [pwkr exNG2 2xF7 2xFMN.10] (Eterna round: R96, puzzle: Exclusion NG 2)”, for which the “apparent KD of MS2 coat protein” value reads like this: (input ligand: FMN 200 uM) 370 nM; under setting [1], 227 nM; (input ligand: none) 16.3 nM.

With “UGUUGUUACGUAGGAUAUGAGGAUCACCCAUAGAAGGAUAUCGAAAGAGAAGGUCUGAGGAUUACCCAGAAGGACGGGUUAACA [pwkr exNG2 2xF5 2xFMN.4] (Eterna round: R96, puzzle: Exclusion NG 2)”, the “apparent KD of MS2 coat protein” value runs as follows: (input ligand: FMN 200 uM) 1340 nM; under setting [1], 131 nM; (input ligand: none) 139 nM.

Consider “UGUUUACAUGAGGAUCACCCAUGUCAGGAUAUGCUCGAUAUAUGGAAACAUAUAUCGAGCAGAAGGGACUAGCG [Jieuxxlusion 4 - Jieux - Exclusion 1] (Eterna round: R97, puzzle: Exclusion 1)”, for which the “apparent KD of MS2 coat protein” value worked out at 85 nM (input ligand: FMN 200 uM) and 39.3 nM (input ligand: none).

Turning to “UUAAAACAUGUAGGAUAUGCGUAGAAAAGCUAUGCAGAAGGACAUGAGGAUCACCCAUGUUCAACCAUCAACGUACAGAUGGAA (Eterna round: R96, puzzle: Exclusion NG 1)”, the “apparent KD of MS2 coat protein” value (input ligand: FMN 200 uM) amounted to 31.7 nM, the “apparent KD of MS2 coat protein” value under setting [1] was 12.1 nM and the “apparent KD of MS2 coat protein” value (input ligand: none) was found to be 14.1 nM.

With “UUAAAUCAUGUAGGAUAUGCGUGGCGAAGCUAUGCAGAAGGACAUGAGGAUCACCCAUGUCUUUCCGUCUGCGUACAGAUGGAA [JL Eng1 1.08 mod 2] (Eterna round: R96, puzzle: Exclusion NG 1)”, the “apparent KD of MS2 coat protein” value is, setting by setting: (input ligand: FMN 200 uM) 259 nM; under setting [1], 19.8 nM; (input ligand: none) 24.8 nM.

On to “UUAAAUCAUGUAGGAUAUGCGUGGCGAAGCUAUGCAGAAGGACAUGAGGAUCACCCAUGUGCUUGCGUCCGCGUACGGAUGCUA [JL ENG1 1.22] (Eterna round: R96, puzzle: Exclusion NG 1)”, for which the “apparent KD of MS2 coat protein” value is, setting by setting: (input ligand: FMN 200 uM) 195 nM; under setting [1], 94 nM; (input ligand: none) 104 nM.

As to “UUAAAUCAUGUAGGAUAUGCGUGGCGAAGCUAUGCAGAAGGACAUGAGGAUCACCCAUGUGCUUGCGUCUGAGUACAGAUGCUA [Mat - Exclusion NG 1 - Mod of JL - D4] (Eterna round: R96, puzzle: Exclusion NG 1)”, the “apparent KD of MS2 coat protein” value (input ligand: FMN 200 uM) was 86.4 nM, the “apparent KD of MS2 coat protein” value under setting [1] amounted to 74 nM and the “apparent KD of MS2 coat protein” value (input ligand: none) came out at 117 nM.

Regarding “UUAAAUCAUGUAGGAUAUGCUUUGCAAAGCGAGGCAGAAGGACAUGAGGAUCACCCAUGUGCUAGCGUCCGAGAACGGAUGCAA [Mat - Exclusion NG 1 - Mod of JL - D64] (Eterna round: R96, puzzle: Exclusion NG 1)”, the “apparent KD of MS2 coat protein” value stood at 503 nM (input ligand: FMN 200 uM), 41.6 nM under setting [1] and 46.6 nM (input ligand: none).

Take “UUAAAUCAUGUAGGAUAUGCUUUGCGAAGCGAGGCAGAAGGACAUGAGGAUCACCCAUGUGCUAGCGUCCGAGAACGGAUGCAA [Mat - Exclusion NG 1 - Mod of JL - D63] (Eterna round: R96, puzzle: Exclusion NG 1)”: the “apparent KD of MS2 coat protein” value turned out to be 149 nM (input ligand: FMN 200 uM), 51.8 nM under setting [1] and 79.6 nM (input ligand: none).

On to “UUAACAUGCUGGUGAUCAUACAUGAGGAUCACCCAUGUAACAAGCUUUUUGUUCGUCUUAUAAGAUCACCAGCAUGU [Stov1/9-B1] (Eterna round: R97, puzzle: Sensor, turn-off variant 1)”, for which the “apparent KD of MS2 coat protein” value runs as follows: (input ligand: FMN 200 uM) 18.7 nM; (input ligand: none) 17.2 nM.

In the case of “UUAAGCUUUGAGAUCCUUAACAUGAGGAUCACCCAUGUUCGUCUUAUGAUGGUCUGAUCCCUGAGGAUCGGACCGUU [Mat - Sensor v3 - turn-off var 1 - JL Mod - D3] (puzzle: Sensor v3, turn-off variant 1)”, the “apparent KD of MS2 coat protein” value runs as follows: (Eterna round: R95, input ligand: FMN 200 uM) 261 nM; under setting [2], 22.5 nM; (Eterna round: R95, input ligand: none) 303 nM.

Regarding “UUAAGGAUAGAGGAUAUAUUAAAGAAGGUGGCGAUAGAAGGCUAGACAUGAGGAUCACCCAUGUAAAUUGGGAU [JR_Ex6_Sub068] (Eterna round: R97, puzzle: Exclusion 6)”, the “apparent KD of MS2 coat protein” value turned out to be 378 nM (input ligand: FMN 200 uM) and 309 nM (input ligand: none).

As to “UUAAUAAGUGUGAGGAUAUGCUGGUCCUUGGAUCAGCAGAAGGCACAUGAGGAUCACCCAUGUACAAUAUAUUA [Mat - Exclusion 4 - JL Mod - D31] (puzzle: Brourd's mod of Exclusion 4)”, under setting [2], the “apparent KD of MS2 coat protein” value came out at 33.9 nM.

On to “UUAAUACAUGUAGGAUAUGCGUGGCGAAGCUAUGCAGAAGGACAUGAGGAUCACCCAUGUUCUUGCGUCCGCGUACGGAUGCAA [JL Eng1 1.21 mod 4] (Eterna round: R96, puzzle: Exclusion NG 1)”, for which the “apparent KD of MS2 coat protein” value (input ligand: FMN 200 uM) worked out at 29.4 nM, the “apparent KD of MS2 coat protein” value under setting [1] was determined as 10.2 nM and the “apparent KD of MS2 coat protein” value (input ligand: none) worked out at 15.2 nM.

For the sequence “UUAAUGUGAGGAUAUCAGGUGUGCUAGCGUACUGGUACAUCUGAGAAGGCACAUGAGGAUCACCCAUGUUCCAG [JL-ex4-3.29 Brourd mod] (puzzle: Exclusion 4)”, the “apparent KD of MS2 coat protein” value under setting [2] was 30.5 nM.

Take “UUAAUUAAUUAACGCAGCAAGAUCACAUGAGGAUCACCCAUGUAGGAUAUCAGCUCGUUUAGAGCUGAGAAGGACAUAGCUGCG [ExNG3/1-A2] (Eterna round: R96, puzzle: Exclusion NG 3)”: the “apparent KD of MS2 coat protein” value reads like this: (input ligand: FMN 200 uM) 87.6 nM; under setting [1], 11.1 nM; (input ligand: none) 18 nM.

Take “UUAAUUAAUUAUAUAAGAUCACAUGAGGAUCACCCAUGUAUAUAGGAUAUCAGCUCGUGUAGAGCUGAGAAGGAUAUACAAUAU [ExNG3/3-B3] (Eterna round: R96, puzzle: Exclusion NG 3)”: the “apparent KD of MS2 coat protein” value is, setting by setting: (input ligand: FMN 200 uM) 241 nM; under setting [1], 210 nM; (input ligand: none) 175 nM.

For the sequence “UUAAUUAAUUGACUGCAAGAUCAACAUGAGGAUCACCCAUGUGAGGAUAUCAGCUCGUGUAGAGCUGAGAAGGCACAAGCAGUC [ExNG3/16-A3] (Eterna round: R96, puzzle: Exclusion NG 3)”, the “apparent KD of MS2 coat protein” value amounted to 73.6 nM (input ligand: FMN 200 uM), 13.4 nM under setting [1] and 21.8 nM (input ligand: none).

On to “UUAAUUAAUUGCGCAAGAUCACAUGAGGAUCACCCAUGUAUAUAGGAUAUCAGCUCGUGUAGAGCUGAGAAGGAUAUACAGCGC [ExNG3/3-A3] (Eterna round: R96, puzzle: Exclusion NG 3)”, for which the “apparent KD of MS2 coat protein” value reads like this: (input ligand: FMN 200 uM) 886 nM; under setting [1], 419 nM; (input ligand: none) 495 nM.

Regarding “UUAAUUAGCUCGCUAGAUCCUCACAUGAGGAUCACCCAUGUGCAGGAUAUCAGCUCGAUUAGAGCUGAGAAGGGCACUGCGAGC [ExNG3/10-A1] (Eterna round: R96, puzzle: Exclusion NG 3)”, the “apparent KD of MS2 coat protein” value is 160 nM (input ligand: FMN 200 uM), 89.5 nM under setting [1] and 104 nM (input ligand: none).

Take “UUAAUUCUGAUUCUUGAAAUACAUGAGGAUCACCCAUGUUCACAGGAUAUUGAUUAUGUUAGUAACAAGAAGGGUGUAACAUAU [JR_ExcNG3_Sub037] (Eterna round: R96, puzzle: Exclusion NG 3)”: the “apparent KD of MS2 coat protein” value under setting [1] was 26.4 nM.

With “UUAAUUUAAGGGAUAGAUCAUUACAUGAGGAUCACCCAUGUUGAGGAUAUCAGCUCGUGUAGAGCUGAGAAGGCAACAAUAGGG [ExNG3/14-A3] (Eterna round: R96, puzzle: Exclusion NG 3)”, the “apparent KD of MS2 coat protein” value turned out to be 249 nM (input ligand: FMN 200 uM), 377 nM under setting [1] and 92.3 nM (input ligand: none).

For “UUACGGAUAGAGGAUAUAUUAAGGAAGGUUACGAUAGAAGGCUAGACAUGAGGAUCACCCAUGUAUAUUGGGAU [JR_Ex6_Sub072] (Eterna round: R97, puzzle: Exclusion 6)”, the “apparent KD of MS2 coat protein” value (input ligand: FMN 200 uM) was found to be 172 nM and the “apparent KD of MS2 coat protein” value (input ligand: none) is 144 nM.

As for “UUACGUUUAGAGGAUAUAUUAAGGAAGGUAACGAUAGAAGGCUAGACAUGAGGAUCACCCAUGUAUAUAGGGAU [JR_Ex6_Sub071] (Eterna round: R97, puzzle: Exclusion 6)”, the “apparent KD of MS2 coat protein” value by setting is: (input ligand: FMN 200 uM) 141 nM; (input ligand: none) 54 nM.

In the case of “UUAGAGUCAGGAUAUGCAGCUCCCUGUAGGGCCGAACAGCAGUAGAAGGGACAUGAGGAUCACCCAUGUGAUAG [Eternabot (L2) Solution 52] (Eterna round: R97, puzzle: Exclusion 4)”, the “apparent KD of MS2 coat protein” value (input ligand: FMN 200 uM) amounted to 86.1 nM and the “apparent KD of MS2 coat protein” value (input ligand: none) amounted to 81.5 nM.

Source of the values: the supplement of paper PMC9170038.
